B1: TPR t1 (parent)
chain: GACCAAUCUGCCCUCAGAGCUCGAGAACAUCUUCGGAUGCAGAGGAGGCAGGCUUCGGUGGCGCGAUAGCGCCAACGUCCUCAACCUCCAAUGCAUCCCACCACAUGAUGAUGCCUGAAGAGCCUUGGUUUUUUG

Variants of: B1
Assay: polymerase ribozyme fitness, log enrichment relative to wild type (log ratio); higher = more active; in vitro selection for triplet polymerase activity
In short: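 Each subunit of a heterodimeric triplet polymerase ribozyme was represented by a PCR-built, transcribed mutant library that underwent triplicate single-round in vitro selection with frozen incubation at −7 °C. Extended constructs were recovered by gel excision, streptavidin-bead capture and RT-PCR, and Illumina sequencing of input and output libraries kept genotypes with ≥10 input reads and ≥1 read per output. Fitness is the logarithm of genotype enrichment relative to wild-type enrichment, from inverse-variance-weighted replicate averages, with a logarithm base of 2.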

First: GACCAAUCUGCCCUCAGAGCUCGAGAACAUCUUCGGUUGCAGGGGAGGCCGUCUUCGGUGGCGCGAUAGCGCCAACGUCCUCAACCUCCAAUGCAUCCCACCACAUGAUAAUGCCUGAAGAGCCUUGGUUUUUUG [A37U A43G A50C G52U G110A]
Second: GACUAAUCUGCCCUCAGAGCUCGAGAACAUCUUCGGAUGCAGUGGAGGCAGGCUUCGGUGGCGCGAUACCGCCAACGUCCUCAACCUCCAAUGCAUCCCACCACAUGAUGAUGCCUGAAGAGCCUUGGUUUUUUG [C4U A43U G69C]
The “polymerase ribozyme fitness (log ratio)” value of the first is lower: -5.79 for the first, -4.04 for the second.

First: GACCAAUCUGCCCUCAGAGCUCGAGAACAUCUUCGGAUGUAGAGGAGGCAGGCUUCGGUGGCGCGAUAGCGCCAACGUCCUCAACCUCCAAUGCAUCCCACCACAUGAUGAGGCCUGAAGAGCCUUGGUUUUUUG [C40U U112G]
Second: GACCAAUCUGCCCUCAGAGCUCGAGAACAUCUUCGGAUGCAGAGGAGGCAGGCUUCGGUGGCGCGAUAGCGCCAACGUCCUCAACAUCCAAUGCAUCCCACCACAUGAUGAUGCCUUAAGAGCCUUGGUUUUUUG [C86A G117U]
The “polymerase ribozyme fitness (log ratio)” value of the first is higher: 0.138 for the first, -4.28 for the second.

First: GACCAAUCUGCCCUCAGAGCUCGAGAACAUCUUCGGAUGCAGAGGAGGCAAGCUUCGGUGGCGCGAUAGCGCCAACGUCCUCAACCUCCAAUUCAUCCCACCAUAUGAUGAUGCCUGAAGAGCCUUGGUUUUUUG [G51A G93U C104U]
Second: GACCAAUCUUCCUUCAGAGCUCGAGAACAUCUUCGGAGGCAGAGGAGGCAGGCUUCGGUGGCGCGAUAGCGCCAACGUCCUCAACCUCCAAUGCAUCCCACCACAUGAUGAUGCCUGAAGAGACUUGGUUUUUUG [G10U C13U U38G C123A]
The “polymerase ribozyme fitness (log ratio)” value of the first is lower: -3.96 for the first, 1.31 for the second.

Compared with GACCAAUCUGCCCUCAGAGCUCGAGAACAUCUUCGGAUGCAGAGGAGGCAGGCUUCUGUGGCGCGAUAGCGCCAACGUCCUCAACCUCCAAUGCAUCCCACCACAUGAUGAUGCCUGAAGUGCCUUGGUUUUUUG [G57U A121U], GACCAAUCUGCUCUCAGAGCUCGAGAACAUCUUCGGAUGCAGAGGAGGCAGGCUUCGGUGGCGCGAUAGCGACAACGUCCUCAACCUCCAAUGCAUCCCACCACAUGAUGAUGCCUGAAGAGCCUUGGUUUUUUG [C12U C72A] is lower in “polymerase ribozyme fitness (log ratio)” value: 1.92 for the first, 0.312 for the second.

First: GACCAAUCUGGCCUCAGAGCUCGAGAACAUCUUCGGAUGCAGAGGAGGCAGGCCUCGGUGGCGCGAUAGCGCCAACGUCCUCAACCUCCAAUGCAUCCCACCACAUGAUGAUGCCUGAAGAGCCUUGGUUUUUUG [C11G U54C]
Second: GACCAAUCUGCUCUCAGAGCUCGAGAACAUCUUCGGAUGCAGAGGAGGCAGGCUUCGGUGGGGCGAUAGCGCCAACGUCCUCAAACUUCAAUGCAUCCCACCACAUGAUGAUGCCUGAAGAGCCUUGGUUUUUUG [C12U C62G C85A C88U]
The “polymerase ribozyme fitness (log ratio)” value of the first is higher: -0.0215 for the first, -2.72 for the second.

GACCACUCUGCCCUCAGAGCUCGAGAACAUCUUCGGAUGCAGAGGAGCCAGGCUUCGGUGGCGCGAUAGCGUCAACGUCCUCAACCUCCAAUGCAUCCCACCACAAGAUGAUGCCUGAAGAGCCUUGGUUUUUUG [A6C G48C C72U U106A] and GACCAAUCUGCCCUCAGAGCUCGAGAACAUCUUCGGAUGCAUAGGAUGCAGGCUUCGGUGGCGCGAUAGCGCCAACGUCCUCAACCUCCAAUGCAUCCCACCACAUGAUGAUGCCUGAAGAGCCUUGGUUUUUUG [G42U G47U] are the same in “polymerase ribozyme fitness (log ratio)” value: -1.51 for the first, -1.51 for the second.

First: GACCAAUCUGCCCUCAGAGCUCGAGAACCUCUUCGGAUGCAGAGGAGGCAGGGUUCGGUGGCGCGAUAGCGCCAACGUCCUCAACCUCCAAUGCAUCCCACCACAUGAUGAUGCCUGAAGAGCCUUGGUUUUGUG [A29C C53G U133G]
Second: GACCAAUCUGCCCUCAGAGCUCGAGAACAUCUUCGGAUGCAGAGGAGGCAGGCUUAGGUGGCGCGAUAGAGCCAACCUCCUCAACCUCCAAUGCAUCCCACCACAUGAUGAUGCCUGAAGAGCCUUGGUUUUUUG [C56A C70A G77C]
The “polymerase ribozyme fitness (log ratio)” value of the first is lower: -4.74 for the first, -3.23 for the second.

First: GACCAAUCGGCCCUCAGAGCUCGAGAACAUCUUCGGAUGCAGAGGAGGCAGGCUUCGGUGGCGCGAUAGCGCCAACGUCCUCAACCUCCAAUGCAUCCCACCACAUGACGAUGCCUGAAGAGCCUUGGUUUUUUG [U9G U109C]
Second: GACCAAUCUGCCCUCAGAGCUCGAAAACAUCUUCGGAUGCAGAGGAGGCAGGCUUCGGUGGCGCGAUAGCGUCAACGUCCUCAACCUCCAAUGCAUCCCACCACAUGAUGAUGCCUGAAGAGCCUUGGUUUUUUG [G25A C72U]
The “polymerase ribozyme fitness (log ratio)” value of the first is higher: -3.57 for the first, -5.57 for the second.

Compared with GACCAAUCUGCCCUCAGAGCUCGAGAACAUCUUCGGAUGCAGAGGAGGCAGGCUUGGGUGUCGCGAUAGCGCCAACGUCCUCAACCUCCAAUGCAUCCCACCACAAGAUGAUGCUUGAAGAGCCUUGGUUUUUUG [C56G G61U U106A C115U], GACCAAUCUGCCCUCAGAGCUGGAGAACAUCUUCGGAUGCAGAGGAGGCAGGCUUCGGUGGGGCGAUAGCGCCAACGUCCUCAACCUCCAAUGCAUCCCACCACAUGAUGAUGCCUGAAGAGCCUUGGUUUUUUG [C22G C62G] is higher in “polymerase ribozyme fitness (log ratio)” value: -5.22 for the first, -4.53 for the second.

Going from GACCAAUCUGCCCUCAGAGCUCGAGGACAUCUUCGGAUGCAGAGGAGGGAGGCUUCGGUGGCGCGAUAGCGCCAACGUCCUCAACCUCCAAUGCAUCCCACCACAUGAUGAUGCCUGAAGAGCCUUGGUUUUUUG [A26G C49G] to GACCAAUCUGCCCUCAGAGCUCGAGAACAUCUUCGGAUGCAGAGGAGGCAGGCUUCGGUGGCGCGAUAGCGUCAACGUCCUCAACCUCCAAUGCAUCCCACCACAUGAUGCUGCCUGAAGUGCCUUGAUUUUUUG [C72U A111C A121U G128A], the “polymerase ribozyme fitness (log ratio)” value rises from -2.93 to -1.12.

With GACGAAUCUGCCCUCAGAGCUCGAGAACGUCUUCGGAUGCAGAGGAGGCAGGCUUCGGUGGCGCGAUAGCGCCCACGUCCUCUACCUCCAAUGCAUCCCACCACAUGAUGAUGCCUGAAGAGCCUUGGUUUUUUG [C4G A29G A74C A83U] the “polymerase ribozyme fitness (log ratio)” value was -4.38.

Source: the RNAGym collection of RNA variant scans (doi:10.1073/pnas.2313332121)
